B1: Myomaker: muscle-specific transmembrane protein; mouse tmem8c CDS expressed from retroviral vector (protein)
chain: MGTVVAKLLLPTLSSLAFLPTVSIATKRRFYMEAMVYLFTMFFVAFSHACDGPGLSVLCFMRRDILEYFSIYGTALSMWVSLMALADFDEPQRSTFTMLGVLTIAVRTFHDRWGYGVYSGPIGTATLIIAVKWLKKMKEKKGLYPDKSIYTQQIGPGLCFGALALMLRFFFEEWDYTYVHSFYHCALAMSFVLLLPKVNKKAGNAGAPAKLTFSTLCCTCV
B2: human Minion: human ortholog of MINION, 84 codon ORF, expressed from retroviral cDNA, untagged or C-terminally epitope-tagged (protein, listed as Homo sapiens)
chain: MPTPLLPLLLRLLLSRLLLPAARLARQYLLPLLRRLARRLGSQDMREALLGCLLFILSQRHSPDAGEASRVDRLERRERLGPQK
B3: mouse MINION: 84 aa mouse microprotein inducer of fusion, expressed from retroviral cDNA, untagged or C-terminally 3×FLAG-1×HA-tagged (protein, listed as Mus musculus)
chain: MPVPLLPMVLRSLLSRLLLPVARLARQHLLPLLRRLARRLSSQDMREALLSCLLFVLSQQQPPDSGEASRVDHSQRKERLGPQK

Key:
MINION^KD C2C12 cells = assay: In vitro reconstitution (complementation) assay of the fusion defect in MINION^KD C2C12 cells; type: cell-based, mouse; conditions: retroviral cDNA expression, 5 days in differentiation medium, MHC immunofluorescence, MINION tested tagged and untagged
Description: For primary myoblasts derived from both embryos and adult mice, around 3000 cells in 50 μl myoblast growth medium (1:1 mixture of DMEM low glucose and Ham's F-10 Nutrient Mix; 20% (v/v) FBS; freshly added 2.5 ng/ml rhFGF) were seeded into each well of a 384-well Collagen-coated PerkinElmer CellCarrier™ plate (6007550) for imaging purposes. The next day, differentiation medium (DMEM high glucose (Gibco® 11995073) with 3% to 5% horse serum) was added to the cells (DM day 0). Differentiation medium was replaced daily. The cells were fixed at DM day 3 and day 4 for immunofluorescence staining. For C2C12 cells, ˜1500-2000 cells were seeded into each well of a 384-well plate (DMEM high glucose with 10% FBS) and around 2×10^5 cells were seeded into each well of a 6-well plate, using C2C12 growth medium (DMEM high glucose with 10% FBS). On the next day, differentiation medium (DMEM high glucose with 2% horse serum) was added to the cells (DM day 0), and differentiation medium was likewise replaced daily. […]
For the cloning of cDNA constructs, the coding sequences (CDS) of mouse MINION (for the 84 aa isoform), human MINION ortholog, mouse tmem8c (myomaker), nanoluc (control A), luciferase (control B), mouse MINION with 1 bp insertion, human MINION with 1 bp deletion, and mouse MINION truncation (39 aa form) were synthesized (IDT) with attB sites at both ends and a consensus Kozak sequence (5′ GCCACC (SEQ ID NO: 94)) before the start codon. […] After expression testing of the two 3F1H-tagged mouse and human MINION constructs, it was noticed that two bands were detected by Western blot with anti-FLAG antibody (FIG. 16). […]
To examine the knockdown efficiency of the mouse MINION transcript, shRNA-encoding lentiviruses were used to infect C2C12 cells. […] Based on an estimated viral titer of 1×10^8 vp/ml (as measured on 293T cells), a virus amount equivalent to MOI30 on 293T cells was used on C2C12 cells. […] Infection efficiency of 70-85% was routinely achieved as judged by FACS analysis, though GFP signal in undifferentiated C2C12 cells was barely discernable by EVOS fluorescence microscopy. […]

C2C12 myoblasts = assay: Cell mixing of 10T1/2 fibroblasts with differentiating C2C12 myoblasts; type: cell-based, mouse; conditions: 10T1/2 fibroblasts mixed with wild-type C2C12 myoblasts (1:2), 3 days in differentiation medium
Description: Differentiating myoblasts and myotubes are marked by MHC. 10T1/2 fibroblasts were infected with retrovirus expressing GFP and proteins of interest (left, NanoLuc control; middle, mouse Myomaker; right, mouse Minion). DAPI marks nuclei. […] White arrows indicate MHC-positive myotubes that are not fused to fibroblasts. n=2 (eight technical replicates each). 0.7 mm×0.7 mm fields are shown. […] 0.7 mm×0.7 mm fields at ×20 magnification are shown. Control and Minion^KD myoblasts were used. Differentiating myoblasts and myotubes are marked by MHC. 10T1/2 fibroblasts expressing Myomaker were labelled with CellTrace Violet dye before mixing. […]
(§1) Cell labeling was performed according to manufacturer's instructions with slight modifications. […] After the last wash, the cells were counted and diluted to the concentration needed for the final mixing experiment in a 384-well or 24-well plate, and were incubated at 37° C. for 30 min. […]
C3H 10T1/2 fibroblasts were infected with retroviruses encoding GFP and either control, Myomaker or Minion; GFP-positive fibroblasts were then mixed with wild-type C2C12 myoblasts and kept in differentiation medium for 3-4 days. Differentiating myoblasts and myotubes were marked by MHC expression, and fusion of GFP-positive fibroblasts to myotubes was readily detected when Myomaker, but not Minion or control, was expressed (FIG. 28A).

10T1/2 fibroblasts = assay: Heterologous co-expression, syncytia formation between fibroblasts; type: cell-based; conditions: retroviral expression in 10T1/2 fibroblasts, growth medium
Description: In order to infect C2C12 cells and 10T1/2 cells, neat virus was incubated with 8 μg/ml polybrene at 37° C. for 10 min and then added to the cells, which were then incubated for 15 min at 37° C. One round of spin infection was performed using 24-well or 12-well plates at 1100 g for 1-1.5 hours and 32° C. After 4-6 hours, fresh neat virus with polybrene was added and a second round of spin infection was performed. Fresh medium was added to the infected cells to dilute the polybrene. […] Infection efficiency of this two-round infection method was generally >95% over a large range of viral concentrations, therefore FACS was not generally necessary. This strong GFP signal was used to mark the boundary of cells, in addition to phase contrast imaging and nuclear markers (FIGS. 22, 23A-23F); moreover, in cells that were fixed with 4% PFA but not permeabilized with detergents, the GFP signal was higher in the nuclear region, allowing unambiguous delineation of both the cell boundary and nuclei. […]
as §1

Myomaker = molecular target: T1, Myomaker (Mus musculus, UniProt Q9D1N4); assay: Co-immunoprecipitation of Minion with Myomaker in differentiating muscle cells; type: binding; conditions: tagged and untagged Minion, endogenous and overexpressed Myomaker
T1 construct: endogenous in cells; host or cells: Differentiating muscle cells
T1 sequence (Q9D1N4 1-221): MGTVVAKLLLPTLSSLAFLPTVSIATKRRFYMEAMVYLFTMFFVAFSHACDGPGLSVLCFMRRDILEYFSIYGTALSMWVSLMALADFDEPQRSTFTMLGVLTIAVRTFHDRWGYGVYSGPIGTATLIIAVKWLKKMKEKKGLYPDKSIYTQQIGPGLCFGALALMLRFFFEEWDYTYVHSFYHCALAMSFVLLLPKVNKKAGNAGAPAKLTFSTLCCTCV

Row | Molecule | rescue of the cell fusion defect (MINION^KD C2C12 cells) | fusion of fibroblasts expressing the protein to wild-type differentiating myoblasts and myotubes (C2C12 myoblasts) | cell fusion between fibroblasts (multinuclear syncytia) (10T1/2 fibroblasts) | physical interaction with Myomaker (co-immunoprecipitation, western blot) (Myomaker)
1 | B1 | incapable of rescuing the fusion defect | fused with wild-type differentiating myoblasts and myotubes | neither Myomaker nor Minion alone (FIG. 21D) was sufficient | 
2 | B2 | strongly reconstituted cell fusion |  |  | 
3 | B3 | robustly rescued fusion | failed to do so | neither Myomaker nor Minion alone (FIG. 21D) was sufficient | no detectable physical interaction

Reference: patent US11339209B2, “Compositions, methods, and therapeutic uses related to fusogenic protein minion” (NOVARTIS AG, priority 2016, dated 2022)
